B1: NR4a2: NR4a2 (NR4A2; NURR1), nuclear hormone receptor cDNA driver (protein, UniProt P43354 1-598, looked up)
Nuclear receptor subfamily 4 …: MPCVQAQYGSSPQGASPASQSYSYHSSGEYSSDFLTPEFVKFSMDLTNTEITATTSLPSFSTFMDNYSTGYDVKPPCLYQMPLSGQQSSIKVEDIQMHNYQQHSHLPPQSEEMMPHSGSVYYKPSSPPTPTTPGFQVQHSPMWDDPGSLHNFHQNYVATTHMIEQRKTPVSRLSLFSFKQSPPGTPVSSCQMRFDGPLHVPMNPEPAGSHHVVDGQTFAVPNPIRKPASMGFPGLQIGHASQLLDTQVPSPPSRGSPSNEGLCAVCGDNAACQHYGVRTCEGCKGFFKRTVQKNAKYVCLANKNCPVDKRRRNRCQYCRFQKCLAVGMVKEVVRTDSLKGRRGRLPSKPKSPQEPSPPSPPVSLISALVRAHVDSNPAMTSLDYSRFQANPDYQMSGDDTQHIQQFYDLLTGSMEIIRGWAEKIPGFADLPKADQDLLFESAFLELFVLRLAYRSNPVEGKLIFCNGVVLHRLQCVRGFGEWIDSIVEFSSNLQNMNIDISAFSCIAALAMVTERHGLKEPKRVEELQNKIVNCLKDHVTFNNGGLNRPNYLSKLLGKLPELRTLCTQGLQRIFYLKLEDLVPPPAIIDKLFLDTLPF
B2: NR4a3: NR4a3 (NR4A3; NOR1), nuclear hormone receptor cDNA driver (protein, UniProt Q92570 1-626, looked up)
Nuclear receptor subfamily 4 …: MPCVQAQYSPSPPGSSYAAQTYSSEYTTEIMNPDYTKLTMDLGSTEITATATTSLPSISTFVEGYSSNYELKPSCVYQMQRPLIKVEEGRAPSYHHHHHHHHHHHHHHQQQHQQPSIPPASSPEDEVLPSTSMYFKQSPPSTPTTPAFPPQAGALWDEALPSAPGCIAPGPLLDPPMKAVPTVAGARFPLFHFKPSPPHPPAPSPAGGHHLGYDPTAAAALSLPLGAAAAAGSQAAALESHPYGLPLAKRAAPLAFPPLGLTPSPTASSLLGESPSLPSPPSRSSSSGEGTCAVCGDNAACQHYGVRTCEGCKGFFKRTVQKNAKYVCLANKNCPVDKRRRNRCQYCRFQKCLSVGMVKEVVRTDSLKGRRGRLPSKPKSPLQQEPSQPSPPSPPICMMNALVRALTDSTPRDLDYSRYCPTDQAAAGTDAEHVQQFYNLLTASIDVSRSWAEKIPGFTDLPKEDQTLLIESAFLELFVLRLSIRSNTAEDKFVFCNGLVLHRLQCLRGFGEWLDSIKDFSLNLQSLNLDIQALACLSALSMITERHGLKEPKRVEELCNKITSSLKDHQSKGQALEPTESKVLGALVELRKICTLGLQRIFYLKLEDLVSPPSIIDKLFLDTLPF
B3: DAX-1: DAX1 (NR0B1), cDNA driver (protein, UniProt P51843 1-470, looked up)
Nuclear receptor subfamily 0 …: MAGENHQWQGSILYNMLMSAKQTRAAPEAPETRLVDQCWGCSCGDEPGVGREGLLGGRNVALLYRCCFCGKDHPRQGSILYSMLTSAKQTYAAPKAPEATLGPCWGCSCGSDPGVGRAGLPGGRPVALLYRCCFCGEDHPRQGSILYSLLTSSKQTHVAPAAPEARPGGAWWDRSYFAQRPGGKEALPGGRATALLYRCCFCGEDHPQQGSTLYCVPTSTNQAQAAPEERPRAPWWDTSSGALRPVALKSPQVVCEAASAGLLKTLRFVKYLPCFQVLPLDQQLVLVRNCWASLLMLELAQDRLQFETVEVSEPSMLQKILTTRRRETGGNEPLPVPTLQHHLAPPAEARKVPSASQVQAIKCFLSKCWSLNISTKEYAYLKGTVLFNPDVPGLQCVKYIQGLQWGTQQILSEHTRMTHQGPHDRFIELNSTLFLLRFINANVIAELFFRPIIGTVSMDDMMLEMLCTKI
B4: GCNF: Germ Cell Nuclear Factor (NR6A1, GCNF1), cDNA driver (protein, UniProt Q15406 1-480, looked up)
Nuclear receptor subfamily 6 …: MERDEPPPSGGGGGGGSAGFLEPPAALPPPPRNGFCQDELAELDPGTISVSDDRAEQRTCLICGDRATGLHYGIISCEGCKGFFKRSICNKRVYRCSRDKNCVMSRKQRNRCQYCRLLKCLQMGMNRKAIREDGMPGGRNKSIGPVQISEEEIERIMSGQEFEEEANHWSNHGDSDHSSPGNRASESNQPSPGSTLSSSRSVELNGFMAFREQYMGMSVPPHYQYIPHLFSYSGHSPLLPQQARSLDPQSYSLIHQLLSAEDLEPLGTPMLIEDGYAVTQAELFALLCRLADELLFRQIAWIKKLPFFCELSIKDYTCLLSSTWQELILLSSLTVYSKQIFGELADVTAKYSPSDEELHRFSDEGMEVIERLIYLYHKFHQLKVSNEEYACMKAINFLNQDIRGLTSASQLEQLNKRYWYICQDFTEYKYTHQPNRFPDLMMCLPEIRYIAGKMVNVPLEQLPLLFKVVLHSCKTSVGKE
B5: PR: Progesterone Receptor (NR3C3), cDNA driver (protein, UniProt P06401 1-933, looked up)
Progesterone receptor: MTELKAKGPRAPHVAGGPPSPEVGSPLLCRPAAGPFPGSQTSDTLPEVSAIPISLDGLLFPRPCQGQDPSDEKTQDQQSLSDVEGAYSRAEATRGAGGSSSSPPEKDSGLLDSVLDTLLAPSGPGQSQPSPPACEVTSSWCLFGPELPEDPPAAPATQRVLSPLMSRSGCKVGDSSGTAAAHKVLPRGLSPARQLLLPASESPHWSGAPVKPSPQAAAVEVEEEDGSESEESAGPLLKGKPRALGGAAAGGGAAAVPPGAAAGGVALVPKEDSRFSAPRVALVEQDAPMAPGRSPLATTVMDFIHVPILPLNHALLAARTRQLLEDESYDGGAGAASAFAPPRSSPCASSTPVAVGDFPDCAYPPDAEPKDDAYPLYSDFQPPALKIKEEEEGAEASARSPRSYLVAGANPAAFPDFPLGPPPPLPPRATPSRPGEAAVTAAPASASVSSASSSGSTLECILYKAEGAPPQQGPFAPPPCKAPGASGCLLPRDGLPSTSASAAAAGAAPALYPALGLNGLPQLGYQAAVLKEGLPQVYPPYLNYLRPDSEASQSPQYSFESLPQKICLICGDEASGCHYGVLTCGSCKVFFKRAMEGQHNYLCAGRNDCIVDKIRRKNCPACRLRKCCQAGMVLGGRKFKKFNKVRVVRALDAVALPQPVGVPNESQALSQRFTFSPGQDIQLIPPLINLLMSIEPDVIYAGHDNTKPDTSSSLLTSLNQLGERQLLSVVKWSKSLPGFRNLHIDDQITLIQYSWMSLMVFGLGWRSYKHVSGQMLYFAPDLILNEQRMKESSFYSLCLTMWQIPQEFVKLQVSQEEFLCMKVLLLLNTIPLEGLRSQTQFEEMRSSYIRELIKAIGLRQKGVVSSSQRFYQLTKLLDNLHDLVKQLHLYCLNTFIQSRALSVEFPEMMSEVIAAQLPKILAGMVKPLLFHKK

Test system: mLeptin promoter
Assay: NHR-promoter luciferase screen, mLeptin promoter
Assay type: cell-based, mouse
Settings: Table 7; mLeptin
How it was run: (§1)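 CV-1 cells were co-transfected with 50 ng NHR (homodimer or NHR/RXR heterodimer), 100 ng promoter-luciferase construct and 50 ng LacZ. Luciferase was normalized to LacZ and to a no-NHR/no-ligand control.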

Row | Molecule | Luc. act., normalized to lacZ | Normalized Luc. act., normalized to control
1 | B1 | 2.1 | 0.7
2 | B2 | 1.8 | 0.6
3 | B3 | 2.5 | 0.9
4 | B4 | 1.5 | 0.5
5 | B5 | 2.2 | 0.8

Same assay, conditions: Table 6d; luciferase activity relative to control (control = 1.00)

Row | Molecule | Results of assays of transcription factor (+/- ligand) with mLeptin
6 | B1 | 0.71
7 | B2 | 0.62
8 | B3 | 0.87
9 | B4 | 0.50
10 | B5 | 0.76

Test system: hPPARg1 promoter
Assay: NHR-promoter luciferase screen, hPPARg1 promoter
Assay type: cell-based, human
Settings: PPARG1 promoter; hormone receptor with or without its ligand
How it was run: as §1

Row | Molecule | Luc. act., normalized to lacZ
11 | B1 | 58.8
12 | B2 | 61.0
13 | B3 | 67.5
14 | B4 | 88.6
15 | B5 | 81.3

Same assay, conditions: PPARG1 promoter; hormone receptor with or without its ligand; relative to control

Row | Molecule | Normalized Luc. act., normalized to control
16 | B1 | 0.9
17 | B2 | 0.9
18 | B3 | 1.0
19 | B4 | 1.3
20 | B5 | 1.2

Same assay, conditions: Table 6d; luciferase activity relative to control (control = 1.00)

Row | Molecule | Results of assays of transcription factor (+/- ligand) with hPPARg1
21 | B1 | 0.85
22 | B2 | 0.88
23 | B3 | 0.98
24 | B4 | 1.29
25 | B5 | 1.18

Test system: hPPARg2 promoter
Assay: NHR-promoter luciferase screen, hPPARg2 promoter
Assay type: cell-based, human
Settings: PPARG2 promoter; hormone receptor with or without its ligand
How it was run: as §1

Row | Molecule | Luc. act., normalized to lacZ
26 | B1 | 1.4
27 | B2 | 1.1
28 | B3 | 1.9
29 | B4 | 1.4
30 | B5 | 1.8

Same assay, conditions: PPARG2 promoter; hormone receptor with or without its ligand; relative to control

Row | Molecule | Normalized Luc. act., normalized to control
31 | B1 | 0.7
32 | B2 | 0.6
33 | B3 | 0.9
34 | B4 | 0.7
35 | B5 | 0.9

Same assay, conditions: Table 6d; luciferase activity relative to control (control = 1.00)

Row | Molecule | Results of assays of transcription factor (+/- ligand) with hPPARg2
36 | B1 | 0.68
37 | B2 | 0.57
38 | B3 | 0.94
39 | B4 | 0.69
40 | B5 | 0.88

Test system: mNPY promoter
Assay: NHR-promoter luciferase screen, mNPY promoter
Assay type: cell-based, mouse
Settings: Table 6d; luciferase activity relative to control (control = 1.00)
How it was run: as §1

Row | Molecule | Results of assays of transcription factor (+/- ligand) with mNPY
41 | B1 | 0.72
42 | B2 | 0.72
43 | B3 | 1.02
44 | B4 | 0.64
45 | B5 | 1.09

Same assay, conditions: mNPY promoter; HR component with or without ligand

Row | Molecule | Luc. act., normalized to lacZ
46 | B1 | 60.4
47 | B2 | 60.4
48 | B3 | 86.0
49 | B4 | 53.5
50 | B5 | 91.7

Same assay, conditions: mNPY promoter; HR component with or without ligand; relative to control

Row | Molecule | Normalized Luc. act., normalized to control
51 | B1 | 0.7
52 | B2 | 0.7
53 | B3 | 1.0
54 | B4 | 0.6
55 | B5 | 1.1

Test system: mPer1 promoter
Assay: NHR-promoter luciferase screen, mPer1 promoter
Assay type: cell-based, mouse
Settings: Per1 promoter reporter; co-transfected HR, with or without its ligand
How it was run: as §1

Row | Molecule | Luc. act., normalized to lacZ
56 | B1 | 155.3
57 | B2 | 139.6
58 | B3 | 153.4
59 | B4 | 151.9
60 | B5 | 207.4

Same assay, conditions: Per1 promoter reporter; co-transfected HR, with or without its ligand; relative to control

Row | Molecule | Normalized Luc. act., normalized to control
61 | B1 | 1.1
62 | B2 | 1.0
63 | B3 | 1.1
64 | B4 | 1.1
65 | B5 | 1.4

Same assay, conditions: mPer1 promoter-luciferase, CV-1 cells, NHR +/- ligand, control = 1.00

Row | Molecule | luciferase activity normalized to lacZ activity and to a control, mPer1
66 | B1 | 1.08
67 | B2 | 0.97
68 | B3 | 1.07
69 | B4 | 1.06
70 | B5 | 1.44
